# Molecular target: mucosa-associated lymphoid tissue lymphoma translocation protein 1 (UniProt Q9UDY8)
# Assay: enzyme inhibition assay, 100 nM MALT1
# Chain of mucosa-associated lymphoid tissue lymphoma translocation protein 1 (Q9UDY8 340-789): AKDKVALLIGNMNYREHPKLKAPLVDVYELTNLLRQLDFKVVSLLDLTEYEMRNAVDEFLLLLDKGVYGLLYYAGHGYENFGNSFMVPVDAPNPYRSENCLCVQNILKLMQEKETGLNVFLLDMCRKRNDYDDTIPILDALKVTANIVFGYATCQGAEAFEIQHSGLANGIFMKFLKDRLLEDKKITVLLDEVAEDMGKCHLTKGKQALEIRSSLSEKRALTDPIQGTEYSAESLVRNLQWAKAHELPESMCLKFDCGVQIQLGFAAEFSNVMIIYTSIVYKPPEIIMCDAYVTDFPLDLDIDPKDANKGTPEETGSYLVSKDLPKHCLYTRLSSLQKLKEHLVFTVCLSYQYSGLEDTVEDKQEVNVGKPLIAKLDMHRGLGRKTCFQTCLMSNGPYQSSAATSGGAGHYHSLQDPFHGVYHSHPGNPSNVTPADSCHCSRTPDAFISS
row,Substance,Ki [nM]
1,(S)-1-((4-Bromobenzoyl)-L-leucyl)-N-((S)-1-fluoro-6-guanidino-2-oxohexan-3-yl)pyrrolidine-2-carboxamide (peptide),182
2,(S)-1-((4-Bromobenzoyl)-L-valyl)-N-((S)-1-fluoro-6-guanidino-2-oxohexan-3-yl)azetidine-2-carboxamide (peptide),118
3,(S)-1-((4-Bromobenzoyl)-L-valyl)-N-((S)-1-fluoro-6-guanidino-2-oxohexan-3-yl)pyrrolidine-2-carboxamide (peptide),10
4,(S)-1-((4-Cyanobenzoyl)-L-valyl)-N-((S)-1-fluoro-6-guanidino-2-oxohexan-3-yl)pyrrolidine-2-carboxamide (peptide),60
5,(S)-1-((4-bromo-3-cyanobenzoyl)-L-valyl)-N-((S)-1-fluoro-6-guanidino-2-oxohexan-3-yl)pyrrolidine-2-carboxamide (peptide),13
6,(S)-1-((4-bromo-3-fluorobenzoyl)-L-valyl)-N-((S)-1-fluoro-6-guanidino-2-oxohexan-3-yl)pyrrolidine-2-carboxamide (peptide),78
7,(S)-1-((4-bromobenzoyl)-L-valyl)-N-((S)-1-fluoro-6-guanidino-2-oxohexan-3-yl)piperidine-2-carboxamide (peptide),79
8,(S)-1-((4-chloro-3-cyanobenzoyl)-L-valyl)-N-((S)-1-fluoro-6-guanidino-2-oxohexan-3-yl)pyrrolidine-2-carboxamide (peptide),24
9,(S)-1-((4-chlorobenzoyl)-L-valyl)-N-((S)-1-fluoro-6-guanidino-2-oxohexan-3-yl)pyrrolidine-2-carboxamide (peptide),67
10,(S)-1-(((2-Chlorophenyl)carbamoyl)-L-valyl)-N-((S)-1-fluoro-6-guanidino-2-oxohexan-3-yl)pyrrolidine-2-carboxamide (peptide),24
11,(S)-1-(((3-Chlorophenyl)carbamoyl)-L-valyl)-N-((R)-1-fluoro-6-guanidino-2-oxohexan-3-yl)pyrrolidine-2-carboxamide (peptide),557
12,(S)-1-(((3-Chlorophenyl)carbamoyl)-L-valyl)-N-((S)-1-fluoro-6-guanidino-2-oxohexan-3-yl)pyrrolidine-2-carboxamide (peptide),27
13,(S)-1-(((4-Bromophenyl)sulfonyl)-L-valyl)-N-((S)-1-fluoro-6-guanidino-2-oxohexan-3-yl)pyrrolidine-2-carboxamide (peptide),66
14,(S)-1-(((4-Chlorophenyl)carbamoyl)-L-valyl)-N-((S)-1-fluoro-6-guanidino-2-oxohexan-3-yl)pyrrolidine-2-carboxamide (peptide),62
15,(S)-1-((Cyclohexanecarbonyl)-L-valyl)-N-((S)-1-fluoro-6-guanidino-2-oxohexan-3-yl)pyrrolidine-2-carboxamide (peptide),56
16,(S)-1-((S)-2-(4-Bromobenzamido)-3-(4-(trifluoromethyl)phenyl)propanoyl)-N-((S)-1-fluoro-6-guanidino-2-oxohexan-3-yl)pyrrolidine-2-carboxamide (peptide),448
17,(S)-1-((S)-2-(4-Bromobenzamido)-3-cyclohexylpropanoyl)-N-((S)-1-fluoro-6-guanidino-2-oxohexan-3-yl)pyrrolidine-2-carboxamide (peptide),122
18,(S)-1-((S)-2-(4-bromobenzamido)-2-cyclohexylacetyl)-N-((S)-1-fluoro-6-guanidino-2-oxohexan-3-yl)pyrrolidine-2-carboxamide (peptide),45
19,"(S)-1-(([1,1′-biphenyl]-4-carbonyl)-L-valyl)-N-((S)-1-fluoro-6-guanidino-2-oxohexan-3-yl)pyrrolidine-2-carboxamide (peptide)",30
20,(S)-1-(Benzoyl-L-valyl)-N-((S)-1-fluoro-6-guanidino-2-oxohexan-3-yl)pyrrolidine-2-carboxamide (peptide),40
21,(S)-1-(cinnamoyl-L-valyl)-N-((S)-1-fluoro-6-guanidino-2-oxohexan-3-yl)pyrrolidine-2-carboxamide (peptide),36
22,(S)-3-((4-Bromobenzoyl)-L-valyl)-N-((S)-1-fluoro-6-guanidino-2-oxohexan-3-yl)oxazolidine-4-carboxamide (peptide),20
23,(S)-4-((4-Bromobenzoyl)-L-valyl)-N-((S)-1-fluoro-6-guanidino-2-oxohexan-3-yl)morpholine-3-carboxamide (peptide),70
24,(S)-N-((R)-1-Fluoro-6-guanidino-2-oxohexan-3-yl)-1-((4-fluorobenzoyl)-L-valyl)pyrrolidine-2-carboxamide (peptide),346
25,(S)-N-((S)-1-Fluoro-6-guanidino-2-oxohexan-3-yl)-1-((2-methoxybenzoyl)-L-valyl)pyrrolidine-2-carboxamide (peptide),109

row,Substance,Ki [nM]
1,(S)-N-((S)-1-Fluoro-6-guanidino-2-oxohexan-3-yl)-1-((2-phenylacetyl)-L-valyl)pyrrolidine-2-carboxamide (peptide),42
2,(S)-N-((S)-1-Fluoro-6-guanidino-2-oxohexan-3-yl)-1-((3-methoxybenzoyl)-L-valyl)pyrrolidine-2-carboxamide (peptide),75
3,(S)-N-((S)-1-Fluoro-6-guanidino-2-oxohexan-3-yl)-1-((3-phenylpropanoyl)-L-valyl)pyrrolidine-2-carboxamide (peptide),43
4,(S)-N-((S)-1-Fluoro-6-guanidino-2-oxohexan-3-yl)-1-((4-fluorobenzoyl)-L-valyl)pyrrolidine-2-carboxamide (peptide),13
5,(S)-N-((S)-1-Fluoro-6-guanidino-2-oxohexan-3-yl)-1-((4-isopropylbenzoyl)-L-valyl)pyrrolidine-2-carboxamide (peptide),22
6,(S)-N-((S)-1-Fluoro-6-guanidino-2-oxohexan-3-yl)-1-((4-methoxybenzoyl)-L-valyl)pyrrolidine-2-carboxamide (peptide),50
7,(S)-N-((S)-1-Fluoro-6-guanidino-2-oxohexan-3-yl)-1-((4-morpholinobenzoyl)-L-valyl)pyrrolidine-2-carboxamide (peptide),75
8,(S)-N-((S)-1-Fluoro-6-guanidino-2-oxohexan-3-yl)-1-((phenylcarbamoyl)-L-valyl)pyrrolidine-2-carboxamide (peptide),52
9,(S)-N-((S)-1-fluoro-6-guanidino-2-oxohexan-3-yl)-1-((3-(4-methylpiperazin-1-yl)benzoyl)-L-valyl)pyrrolidine-2-carboxamide (peptide),175
10,(S)-N-((S)-1-fluoro-6-guanidino-2-oxohexan-3-yl)-1-((3-(trifluoromethoxy)benzoyl)-L-valyl)pyrrolidine-2-carboxamide (peptide),15
11,(S)-N-((S)-1-fluoro-6-guanidino-2-oxohexan-3-yl)-1-((3-morpholinobenzoyl)-L-valyl)pyrrolidine-2-carboxamide (peptide),58
12,(S)-N-((S)-1-fluoro-6-guanidino-2-oxohexan-3-yl)-1-((4-(trifluoromethoxy)benzoyl)-L-valyl)pyrrolidine-2-carboxamide (peptide),27
13,(S)-N-((S)-1-fluoro-6-guanidino-2-oxohexan-3-yl)-1-((4-(trifluoromethyl)benzoyl)-L-valyl)pyrrolidine-2-carboxamide (peptide),132
14,Benzyl (1-((S)-2-(((S)-1-fluoro-6-guanidino-2-oxohexan-3-yl)carbamoyl)pyrrolidine-1-carbonyl)cyclopentyl)carbamate (peptide),1180
15,"Benzyl ((2S,3R)-1-((S)-2-(((S)-1-fluoro-6-guanidino-2-oxohexan-3-yl)carbamoyl)pyrrolidin-1-yl)-3-methyl-1-oxopentan-2-yl)carbamate (peptide)",30
16,Benzyl ((R)-2-((S)-2-(((S)-1-fluoro-6-guanidino-2-oxohexan-3-yl)carbamoyl)pyrrolidin-1-yl)-2-oxo-1-(pyridin-3-yl)ethyl)carbamate (peptide),146
17,"Benzyl ((S)-1-((2S,4R)-2-(((S)-1-fluoro-6-guanidino-2-oxohexan-3-yl)carbamoyl)-4-hydroxypyrrolidin-1-yl)-3-methyl-1-oxobutan-2-yl)carbamate (peptide)",53
18,"Benzyl ((S)-1-((2S,4S)-2-(((S)-1-fluoro-6-guanidino-2-oxohexan-3-yl)carbamoyl)-4-hydroxypyrrolidin-1-yl)-3-methyl-1-oxobutan-2-yl)carbamate (peptide)",49
19,Benzyl ((S)-1-((S)-2-(((S)-1-fluoro-6-guanidino-2-oxohexan-3-yl)carbamoyl)-2-methylpyrrolidin-1-yl)-3-methyl-1-oxobutan-2-yl)carbamate (peptide),158
20,Benzyl ((S)-1-((S)-2-(((S)-1-fluoro-6-guanidino-2-oxohexan-3-yl)carbamoyl)piperidin-l-yl)-3-methyl-1-oxobutan-2-yl)carbamate (peptide),40
21,Benzyl ((S)-1-((S)-2-(((S)-1-fluoro-6-guanidino-2-oxohexan-3-yl)carbamoyl)pyrrolidin-1-yl)-1-oxo-3-phenylpropan-2-yl)carbamate (peptide),76
22,"Benzyl ((S)-1-((S)-2-(((S)-1-fluoro-6-guanidino-2-oxohexan-3-yl)carbamoyl)pyrrolidin-1-yl)-3,3-dimethyl-1-oxobutan-2-yl)carbamate (peptide)",43
23,Benzyl ((S)-1-((S)-2-(((S)-1-fluoro-6-guanidino-2-oxohexan-3-yl)carbamoyl)pyrrolidin-1-yl)-3-methyl-1-oxobutan-2-yl)(methyl)carbamate (peptide),808
24,"Benzyl ((S)-1-((S)-2-(((S)-1-fluoro-6-guanidino-2-oxohexan-3-yl)carbamoyl)pyrrolidin-1-yl)-3-methyl-1-oxobutan-2-yl)carbamate 2,2,2-trifluoroacetate (peptide)",40

# Reference: patent US20180251489A1
